Laboratory results from patent publication US7071300 (dated 2006).

Tests used:
IGF-1 [1] = biological target: T1, IGF-1 (human, UniProt P05019); assay: competition, IGF-1 phage binding to IGFBP-1
IGF-1 [2] = biological target: T1, IGF-1; assay: competition, 125I-IGF-1 binding to MCF-7 cells
IGF-1 [3] = biological target: T1, IGF-1; assay: competition, IGF-1 phage binding to IGFBP-3

T1 sequence (P05019 49-118): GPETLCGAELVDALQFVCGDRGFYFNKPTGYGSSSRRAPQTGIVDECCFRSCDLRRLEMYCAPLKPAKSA

Binder | IC50 (IGF-1 [1]) [µM] | IC50 (IGF-1 [2]) [µM] | IC50 (IGF-1 [3]) [µM]
FECLTSVEALRGCMYG [F1-3] | 11.7 | 45.7 | 12.8
RNCFESVAALRRCMYG [F1-1] | 1.4 | 5.12 | 2.93
MDCLASVEALKWCMYG [F1-2] | 15.5 | 15.3 | 9.2
